Data published in paper PMC6916501 (The Journal of Biological Chemistry, 2019).

Legend:
[1] = target: T1, WT β-catenin_(41–49) peptide on HLA-A3 of T2A3 cells (Homo sapiens, HLA-A*03:01, UniProt P04439;P61769); experiment: flow cytometry on cells; T2A3 cells pulsed with peptide and β2-microglobulin, stained with ~1 × 10^10 phage for 1 h on ice; anti-M13 and PE anti-rabbit; conditions: partners not purified
T1 construct: HLA-A3 stably transfected in T2A3 cells; human β2-microglobulin (ProSpec) added at pulsing; β-catenin amino acids 41-49; also called WT peptide-pulsed T2A3 cells; copies: + +

[2] = target: T1, WT β-catenin_(41–49) peptide on HLA-A3 …; experiment: flow cytometry on cells; T2A3 cells pulsed with peptide and β2-microglobulin, stained with 1 μg scFv in 100 μl for 1 h on ice; PE anti-DYKDDDDK; conditions: one partner purified

B1: E10 phage clone (scFv displayed on M13 phage) (scFv, V domains shown)
VH: EVQLVESGGGLVQPGGSLRLSCAASGFNINNTYIHWVRQAPGKGLEWVASIYPTDGYTRYADSVKGRFTISADTSKNTAYLQMNSLRAEDTAVYYCSRTYYSYYSAMDVWGQGTLVTVSS
VL: DIQMTQSPSSLSASVGDRVTITCRASQDVNTAVAWYQQKPGKAPKLLIYSASFLYSGVPSRFSGSRSGTDFTLTISSLQPEDFATYYCQQSYYSPPTFGQGTKVEIK
notes: scFv from the first library on the humanized 4D5 framework (CDRs L3, H1, H2, H3 varied); source: phage display, amplified in SS320 E. coli with M13K07 helper phage
**Q.** Does B1 bind [1]?
**A.** no binding

B2: E10 scFv with C-terminal FLAG tag (scFv, V domains shown)
VH: EVQLVESGGGLVQPGGSLRLSCAASGFNINNTYIHWVRQAPGKGLEWVASIYPTDGYTRYADSVKGRFTISADTSKNTAYLQMNSLRAEDTAVYYCSRTYYSYYSAMDVWGQGTLVTVSS
VL: DIQMTQSPSSLSASVGDRVTITCRASQDVNTAVAWYQQKPGKAPKLLIYSASFLYSGVPSRFSGSRSGTDFTLTISSLQPEDFATYYCQQSYYSPPTFGQGTKVEIK
notes: as the scFv of m19; source: E. coli, produced by AxioMx
**Q.** Does B2 bind [2]?
**A.** no binding

B3: clone 7 phage clone (scFv displayed on M13 phage) (scFv, V domains shown)
VH: EVQLVESGGGLVQPGGSLRLSCAASGFNVWSYGIHWVRQAPGKGLEWVAGVTPDGSYTYYADSVKGRFTISADTSKNTAYLQMNSLRAEDTAVYYCSRSYGWAMDYWGQGTLVTVSS
VL: DIQMTQSPSSLSASVGDRVTITCRASQDVNTAVAWYQQKPGKAPKLLIYSASFLYSGVPSRFSGSRSGTDFTLTISSLQPEDFATYYCQQQYAYTPITFGQGTKVEIK
notes: scFv from the second library on the humanized 4D5 framework (CDRs L2, L3, H1, H2, H3 varied); also called cl; source: phage display, amplified in SS320 E. coli with M13K07 helper phage
**Q.** Does B3 bind [1]?
**A.** no binding

B4: clone 7 scFv with C-terminal FLAG tag (scFv, V domains shown)
VH: EVQLVESGGGLVQPGGSLRLSCAASGFNVWSYGIHWVRQAPGKGLEWVAGVTPDGSYTYYADSVKGRFTISADTSKNTAYLQMNSLRAEDTAVYYCSRSYGWAMDYWGQGTLVTVSS
VL: DIQMTQSPSSLSASVGDRVTITCRASQDVNTAVAWYQQKPGKAPKLLIYSASFLYSGVPSRFSGSRSGTDFTLTISSLQPEDFATYYCQQQYAYTPITFGQGTKVEIK
notes: as the scFv of m22; also called cl; source: E. coli, produced by AxioMx
**Q.** Does B4 bind [2]?
**A.** no binding
